Key:
[1] = molecular target: T1, PduO C-terminal domain (PduOC) (Salmonella enterica, UniProt A0A0F6B395); test: crystal structure ([…] Å) and ITC; UV/Vis titration; format: binding
T1 construct: C-terminal domain PduOC, 147 residues, His-tag-free; octamer with 4 hemes

[2] = molecular target: PduOC-His18Ala (H18A) mutant (Salmonella enterica subsp. enterica serovar Typhimurium); test: SEC-MALS; Superdex 200 increase 10/300 GL in 100 mM Tris-HCl pH 8, 150 mM NaCl, with multi-angle static light scattering and refractive index detectors; wild type as PduOC:heme, H18A without heme
[3] = molecular target: the molecule itself; test: SEC; gel filtration of the PduOC apoprotein (heme extracted); data not shown
[4] = molecular target: the molecule itself; test: SEC-MALS; Superdex 200 increase 10/300 GL in 100 mM Tris-HCl pH 8, 150 mM NaCl, with multi-angle static light scattering and refractive index detectors; wild type as PduOC:heme, H18A without heme

**Q.** How did the Kd [1] turn out when `C=CC1=C(C)C2=Cc3c(C=C)c(C)c4[n]3[Fe][n]3c(c(C)c(CCC(=O)O)c3=CC3=NC(=C4)C(C)=C3CCC(=O)O)=CC1=N2` [heme B] was run?
**A.** 160 nM

**Q.** Which stoichiometry N [2] does the source give for “PduOC-His18Ala (H18A) mutant (domain or fragment)” here?
**A.** 2

B1: C-terminal domain of the Salmonella enterica PduO protein (PduOC) (domain or fragment)
chain: KETTPVALSFHDLHQLTRAAVERAQQLQVPVVVSIVDAHGTETVTWRMPDALLVSSELAPKKAWTAVAMKTATHELSDVVQPGAALYGLESHLQGKVVTFGGGYALWRDGILIGGLGISGGSVEQDMDIAQTAIAAINVGTHQ
notes: PduO, ATP:Cob(I)alamin adenosyltransferase of S. enterica subsp. enterica serovar Typhimurium; C-terminal domain (PduOC); the His-tag-free monomer has 147 residues; the N-terminal domain (PduON) has 197 residues; excess heme B added to the lysate for crystallography; Residues left by the pETM11 vector after TEV cleavage are probably counted in the 147 residues (surmise); also called PduOC:heme; …
**Q.** How did the “stoichiometry N” value [3] turn out when B1 was run?
**A.** 2

**Q.** And the “stoichiometry N” value [4]?
**A.** 8

Reference: publication PMC4923194, “The Crystal Structure of the C-Terminal Domain of the Salmonella enterica PduO Protein: An Old Fold with a New Heme-Binding Mode” (Frontiers in Microbiology, 2016)
